In patent US20110014193A1 (JURIDICAL FDN THE CHEMO SERO THERAPEUTIC RES INST, published 2011):
Where a chain is given by its changes, count along the chain named. Names may count otherwise. Like-named read-outs stand apart in the source and are kept apart here.

How the values were obtained:
Assay in all cases: cell-based or functional assay
[1] = target: T1, human α9 integrin molecule (human, UniProt Q13797 30-1035; P05556 21-798)
[2] = target: T1, human α9 integrin molecule; remark: listed apart in the source
[3] = target: T1, human α9 integrin molecule; remark: listed apart in the source
[4] = target: T1, human α9 integrin molecule; remark: listed apart in the source
[5] = target: T1, human α9 integrin molecule; remark: listed apart in the source
[6] = target: T1, human α9 integrin molecule; remark: listed apart in the source
[7] = target: T1, human α9 integrin molecule; remark: listed apart in the source
[8] = target: T1, human α9 integrin molecule; remark: listed apart in the source
[9] = target: T1, human α9 integrin molecule; remark: listed apart in the source

T1 sequence (Q13797 30-1035 limits assumed, chain 1 of 2): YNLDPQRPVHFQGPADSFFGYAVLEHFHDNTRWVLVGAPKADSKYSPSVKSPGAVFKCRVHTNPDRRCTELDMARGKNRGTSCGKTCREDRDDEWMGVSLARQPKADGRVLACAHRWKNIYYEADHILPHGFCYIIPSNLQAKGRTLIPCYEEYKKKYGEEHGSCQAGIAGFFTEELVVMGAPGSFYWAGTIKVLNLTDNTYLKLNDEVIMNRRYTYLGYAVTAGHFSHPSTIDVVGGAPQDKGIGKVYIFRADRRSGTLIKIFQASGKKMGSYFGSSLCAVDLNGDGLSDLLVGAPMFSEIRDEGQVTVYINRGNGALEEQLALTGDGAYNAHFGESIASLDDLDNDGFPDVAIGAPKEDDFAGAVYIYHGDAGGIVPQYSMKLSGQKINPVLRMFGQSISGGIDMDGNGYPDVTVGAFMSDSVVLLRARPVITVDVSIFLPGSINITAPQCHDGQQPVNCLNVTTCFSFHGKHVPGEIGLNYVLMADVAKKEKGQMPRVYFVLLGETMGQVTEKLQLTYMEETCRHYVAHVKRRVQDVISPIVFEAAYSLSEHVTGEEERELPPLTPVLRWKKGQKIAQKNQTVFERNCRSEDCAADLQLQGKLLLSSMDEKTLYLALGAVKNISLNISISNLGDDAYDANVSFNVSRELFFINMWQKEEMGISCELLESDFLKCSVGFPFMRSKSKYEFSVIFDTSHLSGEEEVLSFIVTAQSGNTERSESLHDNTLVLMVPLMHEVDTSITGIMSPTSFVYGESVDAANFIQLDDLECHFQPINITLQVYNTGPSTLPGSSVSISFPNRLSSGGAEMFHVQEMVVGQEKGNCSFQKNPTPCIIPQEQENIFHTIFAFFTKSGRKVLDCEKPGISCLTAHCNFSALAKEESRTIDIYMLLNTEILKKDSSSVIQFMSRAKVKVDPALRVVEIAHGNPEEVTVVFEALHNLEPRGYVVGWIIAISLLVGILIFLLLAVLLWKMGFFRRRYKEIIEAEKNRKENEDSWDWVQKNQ
T1 sequence (P05556 21-798 limits assumed, chain 2 of 2): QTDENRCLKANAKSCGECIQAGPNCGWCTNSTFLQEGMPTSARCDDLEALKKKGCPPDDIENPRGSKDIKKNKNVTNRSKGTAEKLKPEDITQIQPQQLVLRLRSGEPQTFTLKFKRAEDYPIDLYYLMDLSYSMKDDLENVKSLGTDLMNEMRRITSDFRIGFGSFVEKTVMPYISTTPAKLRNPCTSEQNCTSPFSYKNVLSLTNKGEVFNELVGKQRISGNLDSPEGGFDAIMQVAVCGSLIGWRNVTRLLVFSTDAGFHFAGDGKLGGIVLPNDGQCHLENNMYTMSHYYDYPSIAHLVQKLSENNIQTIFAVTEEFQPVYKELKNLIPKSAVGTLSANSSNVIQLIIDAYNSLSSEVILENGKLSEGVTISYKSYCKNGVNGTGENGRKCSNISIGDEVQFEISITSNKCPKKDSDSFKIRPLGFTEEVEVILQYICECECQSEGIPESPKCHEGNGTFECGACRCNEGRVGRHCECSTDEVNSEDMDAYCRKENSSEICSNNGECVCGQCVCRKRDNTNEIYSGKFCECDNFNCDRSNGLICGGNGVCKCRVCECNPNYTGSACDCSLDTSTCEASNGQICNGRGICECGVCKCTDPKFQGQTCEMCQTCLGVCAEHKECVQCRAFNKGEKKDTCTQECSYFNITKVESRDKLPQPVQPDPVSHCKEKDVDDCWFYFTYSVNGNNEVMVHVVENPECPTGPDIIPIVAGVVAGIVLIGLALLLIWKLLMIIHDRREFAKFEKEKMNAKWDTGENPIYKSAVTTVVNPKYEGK

B1: mouse Y9A2 antibody (antibody, V domains shown)
VH: QVQLQQSGAELANPGASVKMSCKASGYTLTTYWMHWVKQRPGQGLEWIGYINPSSGYTEYNQKFKDKATLTADKSSSTAYMQLTSLTSEDSAVYYCAIYGDYGDFYFDYWGQGTTLTVSS
VL: SIVMTQTPKFLLVSAGDRVTMTCKASQSVNTDVAWFQQKPGQSPKLLIYFASNHYTGVPDRFTGSGYGTDFTFTISTVQAEDLAIYFCRQDYSSPFTFGGGTKLEIKR
- average cell adhesion inhibitory activity IC50, SW480/hα9 cells on human Tenascin C-RAA [1]: 0.041 µg/mL
- average cell adhesion inhibitory activity IC50, SW480/hα9 cells on human VCAM-1/Ig [1]: 0.077 µg/mL
- average of IC50 values, cell adhesion inhibition test, SW480/hα9 cells on nOPN-RAA [1]: 0.039 µg/mL
- IC50 (µg/mL), cell adhesion inhibition test, SW480/hα9 cells on nOPN-RAA [2]: 0.039 µg/mL
- IC50 (µg/mL), cell adhesion inhibition test, SW480/hα9 cells on nOPN-RAA [3]: 0.07 µg/mL
- IC50 (µg/mL), cell adhesion inhibition test, SW480/hα9 cells on nOPN-RAA [4]: 0.025 µg/mL
- IC50 (µg/mL), cell adhesion inhibition test, SW480/hα9 cells on nOPN-RAA [5]: 0.049 µg/mL
- IC50 (µg/mL), cell adhesion inhibition test, SW480/hα9 cells on nOPN-RAA; value in parentheses, measured simultaneously with RY9A2v5(AL)01 [6]: 0.052 µg/mL
- IC50 (µg/mL), cell adhesion inhibition test, SW480/hα9 cells on nOPN-RAA; value in parentheses, measured simultaneously with RY9A2v5(AW)01 [6]: 0.037 µg/mL
- IC50 (µg/mL), cell adhesion inhibition test, SW480/hα9 cells on nOPN-RAA; value in parentheses, measured simultaneously with RY9A2v5(SW)01 [6]: 0.052 µg/mL
- IC50 (µg/mL), cell adhesion inhibition test, SW480/hα9 cells on nOPN-RAA; value in parentheses, measured simultaneously with RY9A2v5(WE)01 [6]: 0.052 µg/mL
- specific activity (IC50 relative to mouse Y9A2 = 1), cell adhesion inhibition test on nOPN-RAA [7]: 1 ratio of IC50 to mouse Y9A2
- specific activity (IC50 relative to mouse Y9A2 = 1), cell adhesion inhibition test on human Tenascin C-RAA [8]: 1 ratio of IC50 to mouse Y9A2
- specific activity (IC50 relative to mouse Y9A2 = 1), cell adhesion inhibition test on human VCAM-1 [8]: 1 ratio of IC50 to mouse Y9A2
- inhibitory rate (%) of migration of SW480/hα9 cell against nOPN-RAA, antibody at 5 µg/mL [9]: 28%

B2: RY9A2v501 antibody (antibody, V domains shown)
VH: QVQLVQSGAEVKKPGSSVKMSCKASGYTLTTYWMHWVKQRPGQGLEWIGYINPSSGYTEYNQKFKDRVTITADKSTSTAYMELSSLRSEDTAVYYCAIYGDYGDFYFDYWGQGTTVTVSS
VL: DIQMTQSPSSLSASVGDRVTITCKASQSVNTDVAWYQQKPGKAPKLLIYFASNHYTGVPSRFSGSGSGTDFTFTISSLQPEDIATYYCRQDYSSPFTFGGGTKVEIKR
- IC50 (µg/mL), cell adhesion inhibition test, SW480/hα9 cells on nOPN-RAA [3]: 0.054 µg/mL

B3: RY9A2v5(M34I)01 antibody (antibody, V domains shown)
VH: B2 VH with M34I
VL: B2 VL
- IC50 (µg/mL), cell adhesion inhibition test, SW480/hα9 cells on nOPN-RAA [5]: 0.024 µg/mL

B4: RY9A2v5(M34L)01 antibody (antibody, V domains shown)
VH: B2 VH with M34L
VL: B2 VL
- IC50 (µg/mL), cell adhesion inhibition test, SW480/hα9 cells on nOPN-RAA [5]: 0.021 µg/mL

B5: RY9A2v801 antibody (antibody, V domains shown)
VH: B2 VH with M20V, K38R, R40A, I48M
VL: B2 VL
- IC50 (µg/mL), cell adhesion inhibition test, SW480/hα9 cells on nOPN-RAA [3]: 0.058 µg/mL

B6: RY9A2v11011 antibody (antibody, V domains shown)
VH: B2 VH with K65Q, D66G
VL: B2 VL with K24Q
- IC50 (µg/mL), cell adhesion inhibition test, SW480/hα9 cells on nOPN-RAA [4]: 0.012 µg/mL

B7: RY9A2v11012 antibody (antibody, V domains shown)
VH: B2 VH with K65Q, D66G
VL: B2 VL with K24R
- IC50 (µg/mL), cell adhesion inhibition test, SW480/hα9 cells on nOPN-RAA [4]: 0.008 µg/mL

B8: RY9A2v5(AW)01 antibody (antibody, V domains shown)
VH: B2 VH with D104A, F105W
VL: B2 VL
- IC50 (µg/mL), cell adhesion inhibition test, SW480/hα9 cells on nOPN-RAA [6]: 0.015 µg/mL

B9: RY9A2v5(SW)01 antibody (antibody, V domains shown)
VH: B2 VH with D104S, F105W
VL: B2 VL
- IC50 (µg/mL), cell adhesion inhibition test, SW480/hα9 cells on nOPN-RAA [6]: 0.035 µg/mL

B10: RY9A2v5(AL)01 antibody (antibody, V domains shown)
VH: B2 VH with D104A, F105L
VL: B2 VL
- IC50 (µg/mL), cell adhesion inhibition test, SW480/hα9 cells on nOPN-RAA [6]: 0.032 µg/mL

B11: RY9A2v5(WE)01 antibody (antibody, V domains shown)
VH: B2 VH with D104W, F105E
VL: B2 VL
- IC50 (µg/mL), cell adhesion inhibition test, SW480/hα9 cells on nOPN-RAA [6]: 0.022 µg/mL

B12: chimeric Y9A2 antibody (antibody, V domains shown)
VH: B1 VH
VL: B1 VL
- IC50 (µg/mL), cell adhesion inhibition test, SW480/hα9 cells on nOPN-RAA [2]: 0.038 µg/mL

B13: RY9A2v11(M34L)012 antibody (antibody, human IgG1, kappa, V domains shown)
VH: B2 VH with M34L, K65Q, D66G
VL: B2 VL with K24R
- specific activity (IC50 relative to mouse Y9A2 = 1), cell adhesion inhibition test on nOPN-RAA [7]: 0.23 ratio of IC50 to mouse Y9A2
- specific activity (IC50 relative to mouse Y9A2 = 1), cell adhesion inhibition test on human Tenascin C-RAA [8]: 0.35 ratio of IC50 to mouse Y9A2
- specific activity (IC50 relative to mouse Y9A2 = 1), cell adhesion inhibition test on human VCAM-1 [8]: 0.44 ratio of IC50 to mouse Y9A2
- inhibitory rate (%) of migration of SW480/hα9 cell against nOPN-RAA, antibody at 5 µg/mL [9]: 84%

B14: RY9A2v5(IAW)01 antibody (antibody, human IgG1, kappa, V domains shown)
VH: B2 VH with M34I, D104A, F105W
VL: B2 VL
- specific activity (IC50 relative to mouse Y9A2 = 1), cell adhesion inhibition test on nOPN-RAA [7]: 0.29 ratio of IC50 to mouse Y9A2
- specific activity (IC50 relative to mouse Y9A2 = 1), cell adhesion inhibition test on human Tenascin C-RAA [8]: 0.44 ratio of IC50 to mouse Y9A2
- specific activity (IC50 relative to mouse Y9A2 = 1), cell adhesion inhibition test on human VCAM-1 [8]: 1 ratio of IC50 to mouse Y9A2
- inhibitory rate (%) of migration of SW480/hα9 cell against nOPN-RAA, antibody at 5 µg/mL [9]: 109%

B15: RY9A2v12(M34L)012 antibody (antibody, human IgG1, kappa, V domains shown)
VH: B2 VH with M20V, M34L, K38R, R40A, I48M, K65Q, D66G
VL: B2 VL with K24R
- specific activity (IC50 relative to mouse Y9A2 = 1), cell adhesion inhibition test on nOPN-RAA [7]: 0.23 ratio of IC50 to mouse Y9A2
- specific activity (IC50 relative to mouse Y9A2 = 1), cell adhesion inhibition test on human Tenascin C-RAA [8]: 0.26 ratio of IC50 to mouse Y9A2
- specific activity (IC50 relative to mouse Y9A2 = 1), cell adhesion inhibition test on human VCAM-1 [8]: 0.95 ratio of IC50 to mouse Y9A2
- inhibitory rate (%) of migration of SW480/hα9 cell against nOPN-RAA, antibody at 5 µg/mL [9]: 86%
